The target in experiment [1] is HIV-1 Gag polyprotein, uncleaved, in immature virus particles (MA domain of Gag) (HIV-1). Description: cryo-EM structure.
Experiment [2] deals with HIV-1 matrix protein (MA), cleaved, in mature cHIV particles (HIV-1). Description: cryo-EM structure.

On to “HIV-1 Gag polyprotein, uncleaved, in immature virus particles (MA domain of Gag) (natural protein)”, for which, in experiment [1], the stoichiometry N (as a rule, a count of units in the complex or per binding partner) came to 3.

In turn, “HIV-1 matrix protein (MA), cleaved, in mature cHIV particles (natural protein)” came in with a stoichiometry N in experiment [2] of 3.

Source of the values: article PMC7611776.
